The text below walks through data of US8022177B2, “Peptides and calcium regulation in mammalian cells” (The Board of Trustees of the University of Illinois, priority 2005, dated 2011).

Assay [1] concerns the target T1, Cav3.1 (Homo sapiens, UniProt O43497).
T1 construct: expressed in transfected cells; host or cells: HEK-293, stably transfected
Put plainly: Whole-cell patch clamp of Cav3.1 current in Cav3.1-HEK cells transfected with γ6, γ4, their first transmembrane domains or point mutants (Example 3). It counts as cell-based. More on the design: Activation K / Inactivation K: unit not given here. The note with it: for Peak current density: Cav3.1-HEK cells, control 48.43±2.62; for Calcium current density (unit not given): Example 2, control −48.39+/−2.6, fusion series control −46.9+/−5; for Activation K / Activation V½ / Deactivation τ @−100 mV / Inactivation K / Inactivation V½ / Inactivation τ @−20 mV / Time to peak @−25 mV / Activation V peak: Table 3.2; for Normalized Current Density: relative to vector control (100.0%), Table 3.3. As for the experimental part: Transfection. HEK-293 cells stably transfected with the Cav3.1 α1 subunit were transiently transfected with vectors containing GFP and γ subunits cDNA when the cultures reached 50% confluency. Lipofectamine 2000 reagent (Invitrogen) was used following manufacturer's protocol.
Electrophysiology. Whole cell Ca2+ currents were recorded at room temperature using an Axon Instruments Axopatch-1D amplifier, a Digidata 1200 interface and pClamp8.0 software about 48 hours after transfection. Cell capacitance was typically around 10 pF, but ranged from 5-40 pF. Recording micropipettes were made from borosilicate glass (2-3 Mohms tip resistance), and filled with solution contained (in mM) 130 NaCl, 10 EGTA, 2 MgCl2, 1 CaCl2, 10 HEPES, 3 Tris-ATP, and 0.3 Li2GTP or 0.3 Tris-GTP. Tyrode's solution was used as the bath solution. It contained (in mM) 137 NaCl, 1 KCl, 1 MgCl2, 0.33 NaH2PO4, 2 CaCl2, 10 HEPES. Both solutions were adjusted to pH 7.4 with NaOH and 280 mOsm with sucrose.
We determined the biophysical characteristics of Cav3.1 currents in transfected HEK-293 cells and effects of the first transmembrane domain of γ4 and γ6 on these properties. Test parameters were optimized for studying Cav3.1 current. The time constant (τ) of deactivation (τdeac) was obtained by single exponential fitting of tail currents. For Cav3.1 currents, the cells were clamped at a holding potential of −100 mV, then depolarized to −20 mV for 4 msec, and repolarized to various voltages from −120 mV to −60 mV at 10 mV interval for 150 msec to elicit tail currents.
The voltage dependence of activation was measured using tail currents. For Cav3.1 currents, the cells were clamped at a holding potential equal to −100 mV, and then depolarized briefly to a conditioning potential, varying from −90 mV to +60 mV, and finally clamped at −60 mV before inactivation. Using this protocol, all tail currents are elicited at the same driving force (at −60 mV), so the current amplitude accurately reflects the number of channels opened during the different conditioning potentials.
A series of conditioning prepulses of 500 msec were used to measure voltage dependence of inactivation in our experiments. Channels initially open and then reach steady-state inactivation during the 500 msec long prepulses. The membrane potential is stepped to a fixed test potential of −20 mV, where maximal peak current is elicited. Currents elicited at each test potential reflect how many channels are not in the inactivated state after a steady-state inactivation; that is, how many channels are available to open. The conditioning prepulse potentials were changed from −120 mV to 50 mV, and the test potential is fixed at −20 mV.
Data collection and analysis. To probe the structural features necessary for the function of γ subunits, we are using HEK-293 cell line stably transfected with Cav3.1 α1 subunit. These cells are then transiently transfected with vectors containing various chimeric, truncated or mutant gamma subunits. […] There is inherent variation in calcium current density in the HEK-Cav3.1 stable cell line likely due to differences in the batch used, passenger number, extent of cellular confluence, or for other unknown reasons. The averaged current density of each test group of cells was normalized to the mean current density of a parallel control group of cells plated from the same batch of cells and analyzed on the same day. A minimum of 5 cells (typically 7 to 10) from each group was used to calculate the mean behavior of test and control cells from each days recording. At least two independent transfections were performed for each test condition. Overall, averages were obtained from 21 control groups of cells that had been transfected with empty vector over several months. The data are pooled together to reduce the variance. […] The current density of the control cells over many months justified the pooling of data recorded from different batches of cells transfected with mutated γ subunits. […]
(The patch-clamp technique gives a direct electrical read-out from membranes.)

Assay [2] addresses T1, Cav3.1. Kind of assay: Whole-cell patch clamp of Cav3.1 dependent LVA calcium current in HEK-293/Cav3.1 cells transiently transfected with γ subunits (Example 1). It counts as cell-based. As for the experimental part: 2.3. Transfection. Untransfected HEK-293 cells, HEK-293 cell lines stably transfected with Cav3.1, and HL-1 cells were transiently transfected with vectors containing γ subunit, GFP, and modified CFP cDNAs using Lipofectamine 2000 reagent (InVitrogen) as per the manufacturer's recommendations. HEK-293 cells were grown to 70-80% confluence before transfection. HL-1 cells were grown to 50-75% confluence before transfection.
2.4. Electrophysiology. Whole-cell calcium currents were recorded using an Axopatch-1 D patch clamp system and Clampex 8.0 software. Pipettes were fabricated from borosilicate glass and had typical resistances of 2-4 MΩ. The pipette solution contained (in mM): 130 NaCl, 10 EGTA, 2 MgCl2, 1 CaCl2, 10 HEPES, 3 Tris-ATP, and either 0.3 Li2GTP or 0.3 Tris-GTP, adjusted to pH 7.4 with NaOH and 280 mOsm with sucrose. The bath solution contained (in mM): 137 NaCl (for HEK-293 experiments) or 120 TEACl (for HL-1 experiments), 1 KCl, 1 MgCl2, 0.33 NaH2PO4, 2 CaCl2 (for HEK-293 experiments) or 5 CaCl2 (for HL-1 experiments), 10 glucose (for HL-1 experiments only), 10 HEPES, and 30 μM TTX (for HEK-293 experiments only), adjusted to pH 7.4 with NaOH (for HEK-293 experiments) or TEAOH (for HL-1 experiments) and 280 mOsm with sucrose. NaCl was used as the major salt in the pipette solution order to eliminate any outward K+ currents.
Recordings from HEK-293 cells were made 48-96 h posttransfection, at which time expression, as measured by GFP fluorescence, peaked. HL-1 cells were used for recording 24-36 h post-transfection. Current densities in HEK-293/Cav3.1 cell experiments were normalized to control for variation in current expression in the different frozen stocks of stable cell lines used. […] HL-1 experiments were performed using a single stock of cells. All HEK-293 data are from current records in which pipette and whole-cell capacitance were about 100% compensated and series resistance was compensated to >80%. Whole-cell capacitance and series resistance were not compensated for HL-1 recordings as currents were typically <100 pA. Series resistance values were typically <10 MX, and no records were used in which the voltage error (as defined by Ver=Imax×Ra) was greater than 5 mV. The holding potential of all protocols used for HEK-293 cells was −100 mV except for steady-state inactivation protocols where the holding potential was −120 mV. The holding potential for protocols used for HL-1 cells was −90 mV. Current-voltage relationships for all HEK-293 and HL-1 cells were measured using 50 ms test depolarizations. Peak current amplitudes for activation curves were determined by fitting tail currents, elicited by stepping membrane voltage from varying test potentials to −60 mV, with the Boltzman equation. Test potential steps for activation protocols were of varied durations, corresponding to the time to peak of the elicited current. Inactivation curves were determined by fitting peak amplitudes of currents, observed in a test pulse to −20 mV, following 500 ms steps to varying potentials, with the Boltzman equation. Time to peak was determined using the current-voltage protocol described above. Inactivation time constants were determined by fitting the decay phase of currents to an exponential equation and deactivation time constants were determined by fitting the decay phase of tail currents to an exponential equation. […] Currents were recorded at 40 kHz and on-line filtered at either 5 or 10 kHz. In some cases currents were off-line filtered at 1 kHz to further reduce noise. Current/voltage relationships and tail currents were recorded from HEK cells using an on-line P/−4 subtraction procedure. Calcium currents recorded from HL-1 cells were off-line leak subtracted. The average membrane capacitance of untransfected HEK-293 cells in pilot experiments was 12.5±1.4 pF (n=8). […]

T1 sequence (O43497 whole entry): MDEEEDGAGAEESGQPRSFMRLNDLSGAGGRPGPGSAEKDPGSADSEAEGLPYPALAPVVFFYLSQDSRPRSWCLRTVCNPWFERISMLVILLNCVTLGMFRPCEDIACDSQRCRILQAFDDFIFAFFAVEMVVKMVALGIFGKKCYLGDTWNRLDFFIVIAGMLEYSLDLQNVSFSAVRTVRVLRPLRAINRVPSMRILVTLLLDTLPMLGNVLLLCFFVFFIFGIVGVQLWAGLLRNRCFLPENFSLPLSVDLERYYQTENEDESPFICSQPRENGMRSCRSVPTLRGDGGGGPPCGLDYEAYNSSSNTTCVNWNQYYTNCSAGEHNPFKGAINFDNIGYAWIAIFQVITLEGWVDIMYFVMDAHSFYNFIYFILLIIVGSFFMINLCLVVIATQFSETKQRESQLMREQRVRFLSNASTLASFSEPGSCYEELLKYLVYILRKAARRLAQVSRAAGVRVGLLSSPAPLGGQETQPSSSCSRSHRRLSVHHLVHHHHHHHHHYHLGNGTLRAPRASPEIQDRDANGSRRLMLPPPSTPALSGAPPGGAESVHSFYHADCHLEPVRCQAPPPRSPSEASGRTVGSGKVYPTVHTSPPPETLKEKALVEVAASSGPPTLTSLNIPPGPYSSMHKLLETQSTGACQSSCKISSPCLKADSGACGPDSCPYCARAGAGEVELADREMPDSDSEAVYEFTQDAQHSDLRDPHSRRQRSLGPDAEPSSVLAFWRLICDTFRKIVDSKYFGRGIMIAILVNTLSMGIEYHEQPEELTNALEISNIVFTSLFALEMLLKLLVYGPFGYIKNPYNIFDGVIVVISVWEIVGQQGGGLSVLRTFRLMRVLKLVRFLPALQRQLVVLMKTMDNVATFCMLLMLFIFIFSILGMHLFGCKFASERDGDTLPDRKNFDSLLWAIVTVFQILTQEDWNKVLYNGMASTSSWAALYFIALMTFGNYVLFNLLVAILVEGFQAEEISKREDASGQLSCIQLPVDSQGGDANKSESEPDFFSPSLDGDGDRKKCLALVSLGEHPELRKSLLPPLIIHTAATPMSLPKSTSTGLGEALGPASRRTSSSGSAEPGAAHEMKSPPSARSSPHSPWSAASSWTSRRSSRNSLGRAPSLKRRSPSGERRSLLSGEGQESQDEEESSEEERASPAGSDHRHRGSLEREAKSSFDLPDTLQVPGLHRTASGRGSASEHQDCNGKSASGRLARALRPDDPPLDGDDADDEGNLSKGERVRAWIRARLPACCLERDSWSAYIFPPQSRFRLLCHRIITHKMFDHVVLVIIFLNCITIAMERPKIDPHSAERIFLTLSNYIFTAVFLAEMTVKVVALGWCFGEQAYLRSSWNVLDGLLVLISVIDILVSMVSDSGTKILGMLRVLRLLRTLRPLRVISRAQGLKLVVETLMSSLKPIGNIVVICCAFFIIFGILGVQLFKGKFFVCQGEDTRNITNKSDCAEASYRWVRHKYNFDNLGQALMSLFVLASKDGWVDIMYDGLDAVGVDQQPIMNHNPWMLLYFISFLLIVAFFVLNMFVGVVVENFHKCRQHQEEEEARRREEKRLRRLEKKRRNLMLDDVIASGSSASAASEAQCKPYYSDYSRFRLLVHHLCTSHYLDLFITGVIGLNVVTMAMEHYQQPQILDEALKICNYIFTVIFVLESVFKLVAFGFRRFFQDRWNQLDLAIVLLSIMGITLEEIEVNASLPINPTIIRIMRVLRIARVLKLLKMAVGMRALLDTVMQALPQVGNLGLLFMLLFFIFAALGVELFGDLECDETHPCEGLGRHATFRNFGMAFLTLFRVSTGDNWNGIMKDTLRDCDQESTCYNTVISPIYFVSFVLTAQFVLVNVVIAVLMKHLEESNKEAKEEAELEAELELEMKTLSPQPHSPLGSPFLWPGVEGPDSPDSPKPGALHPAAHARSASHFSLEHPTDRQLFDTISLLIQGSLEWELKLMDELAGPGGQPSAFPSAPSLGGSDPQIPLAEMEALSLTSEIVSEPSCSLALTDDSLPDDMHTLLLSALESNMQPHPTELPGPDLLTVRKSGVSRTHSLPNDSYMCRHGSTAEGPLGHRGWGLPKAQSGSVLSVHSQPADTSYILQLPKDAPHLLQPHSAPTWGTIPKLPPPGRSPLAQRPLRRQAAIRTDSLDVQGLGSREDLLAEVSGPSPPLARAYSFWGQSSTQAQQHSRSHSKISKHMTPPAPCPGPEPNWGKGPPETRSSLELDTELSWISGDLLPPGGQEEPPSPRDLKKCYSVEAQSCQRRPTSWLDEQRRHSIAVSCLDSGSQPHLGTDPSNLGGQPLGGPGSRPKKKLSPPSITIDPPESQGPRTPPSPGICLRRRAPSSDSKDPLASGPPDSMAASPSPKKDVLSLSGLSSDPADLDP

With “γ4 TM1: first transmembrane domain of γ4, SEQ ID NO:17 (LLTTAGAFAAFSLMAIAIGT)”, in the assay with Cav3.1 [1], the Peak current density was 56.34±5.01 pA/pF, the “Calcium current density (unit not given)” value is −48.3+/−3, the “Activation K” value is 13.29 ± 0.70 and the “Activation V½” value is listed as −29.71 ± 2.03 mV. Further, in the assay with Cav3.1 [1], the “Deactivation τ @−100 mV” value is on record as 2.40 ± 0.22 ms, the “Inactivation K” value was −5.92 ± 0.12, the “Inactivation V½” value is listed as −66.17 ± 0.83 mV and the “Inactivation τ @−20 mV” value stood at 25.5 ± 0.9 ms. Moreover, the “Time to peak @−25 mV” value with Cav3.1 [1] was 9.00 ± 0.51. In the assay with Cav3.1 [1] (listed as γ4 1stTM), the “Activation V peak” value was −28.57 ± 0.82 mV. Further, the “Activation V peak” value in the assay with Cav3.1 [1] (listed as γ4 first transmembrane domain) is given as −28.57±0.82 mV.

Regarding “γ6 TM1: first transmembrane domain of γ6, approximately 20 amino acids, SEQ ID NO:12 (KLGLLVAIVGATLAVLAVGT)”, in the assay with Cav3.1 [1], the Peak current density is recorded as 38.65±2.92 pA/pF, the “Calcium current density (unit not given)” value is recorded as −38.6+/−2.9, the “Activation K” value stood at 10.85 ± 0.49 and the “Activation V peak” value is listed as −26.00±1.00 mV. Moreover, in the assay with Cav3.1 [1], the “Activation V½” value is −30.33 ± 2.32 mV, the “Deactivation τ @−100 mV” value amounted to 2.01 ± 0.21 ms, the “Inactivation K” value is −5.54 ± 0.12 and the “Inactivation V½” value is −62.43 ± 0.65 mV. Moreover, in the assay with Cav3.1 [1], the “Inactivation τ @−20 mV” value amounted to 24.0 ± 1.3 ms and the “Time to peak @−25 mV” value amounted to 11.06 ± 0.97. Further, the “Decrease of peak current density from control” value with Cav3.1 [1] (TM1 series, vs blank vector) amounted to 20%. In addition, in the assay with Cav3.1 [1] (listed as γ6 1stTM), the “Activation V peak” value is reported as −26.00 ± 1.00 mV.

B1: γ7: rat calcium channel γ7 subunit (AF361345), SEQ ID NO:50 (protein, listed as Rattus norvegicus)
chain: MSHCSSRALTLLSSVFGACGLLLVGIAVSTDYWLYMEEGTVLPQNQTTEVKMALHAGLWRVCFFAGREKGRCVASEYFLEPEINLVTENTENILKTVRTATPFPMVSLFLVFTAFVISNIGHIRPQRTILAFVSGIFFILSGLSLVVGLVLYISSINDEVMNRPSSSEQYFHYRYGWSFAFAASSFLLKEGAGVMSVYLFTKRYAEEEMYRPHPAFYRPRLSDCSDYSGQFLQPEAWRRGRSPSDISSDVSIQMTQNYPPAIKYPDHLHISTSPC
In the case of B1, the “Effect on current kinetics or voltage dependency” value with Cav3.1 [2] (HEK-293/Cav3.1) is on record as “did not alter current kinetics or voltage dependency”. Besides, the “Peak current density, % of control value” in the assay with Cav3.1 [2] (HEK-293/Cav3.1, normalized to adCGI vector control, mean±S.E.M.) was 99%±8%. In the assay with Cav3.1 [2] (HEK-293 cells), the “Effect on Cav3.1 current” value is given as “no significant effect”. In the assay with Cav3.1 [2] (Table 2), the “Activation V 0.5” value is −28.1 ± 1.2 (n = 11) mV; the Activation k is given as 11.1 ± 0.3 (n = 11); the “Deactivation tau @ −100 mV, Fast” value is listed as 1.30 ± 0.10 (n = 11) ms; the “Inactivation Tau @ −20 mV” value is listed as 17.2 ± 0.5 (n = 10) ms. For the same molecule, in the assay with Cav3.1 [2] (Table 2), the “Inactivation V 0.5” value is reported as −68.6 ± 1.4 (n = 10) mV, the Inactivation k is 6.0 ± 0.1 (n = 10), the “Time to peak @ −20 mV” value is 7.0 ± 0.4 (n = 11) ms and the V peak is given as −24.1 ± 0.9 (n = 11) mV.

B2: γ6 L43S: γ6 with leucine at position 43 substituted with serine (protein, UniProt Q9BXT2 1-260, looked up, variant L43S)
Voltage-dependent calcium …: MMWSNFFLQEENRRRGAAGRRRAHGQGRSGLTPEREGKVKLASLLAAVGATLAVLSVGTEFWVELNTYKANGSAVCEAAHLGLWKACTKRLWQADVPVDRDTCGPAELPGEANCTYFKFFTTGENARIFQRTTKKEVNLAAAVIAVLGLAVMALGCLCIIMVLSKGAEFLLRVGAVCFGLSGLLLLVSLEVFRHSVRALLQRVSPEPPPAPRLTYEYSWSLGCGVGAGLILLLGAGCFLLLTLPSWPWGSLCPKRGHRAT
For the molecule B2, the figures for the “Normalized Current Density” value with Cav3.1 [1] and in the assay with Cav3.1 [1] (listed as L43S) were 48.2% and 48.2%±7.2%, respectively.
